In publication PMC2629542 one finds Kd data, which are given here for 13 substances.

The target in one assay is Dr hemagglutinin (DraE) adhesin, Dr fimbriae (E. coli). Description: SPR. Background: SPR reads the build-up and loss of mass on a sensor chip optically.
In the case of N-domain of CEA (domain or fragment), the Kd – broadly, the free concentration of one partner at which half of the binding sites on the other are occupied at equilibrium, for simple one-to-one binding – is 13.1 µM.

Another assay shares this target. Description: SPR. This is another data set of the same source.
N-CEA D40A (domain or fragment) showed a Kd of 48.9 µM.

Substance N-CEA S32N (domain or fragment) showed a Kd of 12.8 µM.

In the case of N-CEA T52N (domain or fragment), the Kd was determined as 11 µM.

N-CEA V39A (domain or fragment): the equilibrium dissociation constant (Kd) came out at 9.35 µM.

For N-CEA G51D (domain or fragment), the Kd was 12 µM.

Consider N-CEA F29R (domain or fragment), for which the Kd is more than 200 µM.

In the case of N-CEA F9A (domain or fragment), the Kd was determined as 18.4 µM.

Regarding N-CEA L28P (domain or fragment), the Kd is 6.6 µM.

Substance N-CEA V11A (domain or fragment) registered a Kd of 24.9 µM.

In the case of “CEA-CEACAM8 chimera (from UniProt P06731 35-92) (domain or fragment)”, the Kd was found to be 14.4 µM.

For the substance N-CEA Q44R (domain or fragment), the Kd is more than 200 µM.

The substance “N-domain of CEACAM1 (domain or fragment)” returned a Kd of 15.3 µM.

In turn, N-domain of CEA (domain or fragment) came in with a Kd of 13.1 µM.
